In article PMC2607196 (Molecular cell, 2008):

T1: gp130/CNTF-Rα/CNTF ternary complex (human, UniProt P26441 1-200; P40189 23-619)
T1 chain 1: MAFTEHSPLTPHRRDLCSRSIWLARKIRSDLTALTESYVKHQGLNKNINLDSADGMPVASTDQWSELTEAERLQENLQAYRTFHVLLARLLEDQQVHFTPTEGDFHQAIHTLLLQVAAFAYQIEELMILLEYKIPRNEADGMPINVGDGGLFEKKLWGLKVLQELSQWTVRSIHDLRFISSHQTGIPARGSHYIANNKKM
T1 chain 2: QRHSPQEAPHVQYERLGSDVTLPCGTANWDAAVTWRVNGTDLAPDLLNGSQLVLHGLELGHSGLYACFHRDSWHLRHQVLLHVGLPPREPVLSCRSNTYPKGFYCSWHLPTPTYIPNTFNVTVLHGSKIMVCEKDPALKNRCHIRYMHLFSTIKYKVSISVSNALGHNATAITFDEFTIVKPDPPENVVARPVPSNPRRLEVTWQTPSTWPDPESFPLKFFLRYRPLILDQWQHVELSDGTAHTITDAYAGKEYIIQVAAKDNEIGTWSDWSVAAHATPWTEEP
T1 chain 3: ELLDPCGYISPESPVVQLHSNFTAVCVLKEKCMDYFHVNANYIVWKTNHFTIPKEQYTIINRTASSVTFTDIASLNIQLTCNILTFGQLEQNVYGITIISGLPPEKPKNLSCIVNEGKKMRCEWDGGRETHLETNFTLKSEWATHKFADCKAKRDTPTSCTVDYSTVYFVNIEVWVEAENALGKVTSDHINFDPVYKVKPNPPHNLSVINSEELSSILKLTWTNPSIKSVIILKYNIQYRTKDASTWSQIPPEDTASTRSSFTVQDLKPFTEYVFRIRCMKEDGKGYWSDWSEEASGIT

B1: Leukemia Inhibitory Factor Receptor LIF-R (D1-D5) (domain or fragment, human)
chain: DLKCVTNNLQVWNCSWKAPSGTGRGTDYEVCIENRSRSCYQLEKTSIKIPALSHGDYEITINSLHDFGSSTSKFTLNEQNVSLIPDTPEILNLSADFSTSTLYLKWNDRGSVFPHRSNVIWEIKVLRKESMELVKLVTHNTTLNGKDTLHHWSWASDMPLECAIHFVEIRCYIDNLHFSGLEEWSDWSPVKNISWIPDSQTKVFPQDKVILVGSDITFCCVSQEKVLSALIGHTNCPLIHLDGENVAIKIRNISVSASSGTNVVFTTEDNIFGTVIFAGYPPDTPQQLNCETHDLKEIICSWNPGRVTALVGPRATSYTLVESFSGKYVRLKRAEAPTNESYQLLFQMLPNQEIYNFTLNAHNPLGRSQSTILVNITEKVYPHTPTSFKVKDINSTAVKLSWHLPGNFAKINFLCEIEIKKSNSVQEQRNVTIKGVENSSYLVALDKLNPYTLYTFRIRCSTETFWKWSKWSNKKQHLTTEAS
B2: Ciliary Neurotrophic Factor (CNTF) (ligand, human, UniProt P26441 1-200, looked up)
chain: T1 chain 1

Columns and labels:
[1] = biological target: T1, gp130/CNTF-Rα/CNTF ternary complex; assay: ITC
[2] = biological target: B1; assay: ITC

Binder	stoichiometry N [1]	binding result [2]
B1	1	
B2		binds
